Assay: soluble on expression in E. coli; label from the status in PepcDB or PDB records
In the case of “MGSDKIHHHHHHSDDNKTTGATYDPNQPVTVESFMPVEGKLREKVIVKGSNFGTDKSKVKVYFVDEAAERLSTVIGIDNNTLYCLAPRQLPGGNRIKVIVDGKEVTTDGTFKYEQAQNVSTISGSASKDGNDDGDLASAKFKYMWGIAAVGNNTVLAYQRDDPRVRLISVDDNKVTTVHPGFKGGKPAVTKDKQRVYSIGWEGTHTVYVYMKASGWAPTRIGQLGSTFSGKIGAVALDETEEWLYFVDSNKNFGRFNVKTQEVTLIKQLELSGSLGTNPGPYLIYYFVDSNFYMSDQNLSSVYKITPDGECEWFCGSATQKTVQDGLREEALFAQPNGMTVDEDGNFYIVDGFKGYCLRKLDILDGYVSTVAGQVDVASQIDGTPLEATFNYPYDICYDGEGGYWIAEAWGKAIRKYAVE”, the “soluble on expression in E. coli” value is reported as “not soluble”.
For “MGSDKIHHHHHHSEEIFNGQVTDGEHSGAQLNIVPTVSSESTETRAGFDPKTDWAAGDALGLFMYKSSGWGDAYPRYDAQNNKSTRQANGWSQASPVYLLVDKATIWAYYPYNQAVTDGTKIPVPINVGTSVDYMWGKSTNQVSVIETDARIPMKHALSQFVVRLKVSPEYHNDGNLTSAKLKATGAKFATTGTMNLNDGGKITFQPTSTELTWSPNTTVPAQGQQAVDYAAAIYPMTLAAGEVSLEVVIDGATYTYAIPQITWEAGKRYIYSITMRSNDAEIGGENGQSVTIEGWTSTEEDITLVPVK”, the “soluble on expression in E. coli” value was “not soluble”.
In the case of “MGSDKIHHHHHHSNKKTVDPNPVVRDNIIHLSTAIKNVREEMMLSELVDSVSYIPLETNPNCMLGNYQRLTFSPQYIFYSNYCFDWNGQFLFRIGSQGQGACEDIYVHVADIVYLNNHFYGNASKIIEYDDRGKCTGKELSWFTQKTMDTAPVGHLVNQVCFAPAGENLMFYNFPDTVYFINTDYEFVAKRSMMPWGRKGGAPSMSGGDPRFKYTSYYKDTTLFYNFYTDTVFTVTPTSLMPRWVVELDEELRFPTRYLYEDGLLSEAFKCWESGNLENAKMIKLLDHKYMVSGVFETERFVFLSVYECMPFRELRKLPETPPLTAIYNKRTGETFAVKQVVDDLGGMKAFFPSWGAYNEKLLATIWPYKLKEFIEEEQSAGRTVAPQILNLMQRVREDDNPVLIIAHLKK”, the “soluble on expression in E. coli” value is reported as “not soluble”.
With “MGSDKIHHHHHHTEDTFWKDETDFNLALTSCYTPLKNALNGGYYGTRGVMLRIARADEVDFRNDISDVYTVNRFTNSNTNSLTQGMFYQFYNALYRTNSIMQKLEEKKEQFSTDFQNSVKGECLFIRGFYLFQLAKEFKDAPLRLTASQSPSTFPLAKSSQADIWAQAKEDLKTAASLLPITNKIGKPTQGAAYAALGKIYVYEENWQEAINVLEPLTQNPYTYKLVEDFNWNFDDTHENNAESIFELLIEDVGGTDLWGDGENINSTQSNTRPKEYAAAEVGGWYEANPTQQIMDIFWKEKDKDGNFDYRARCSVAWDYEGCTYYQRPFREVFAQDKWKTYWILKYQNWKTQKDEPAPPKSFINERAIRYADVLLMLAEAYMNKGALDTSIGYINQIRRRANLNDYSGPITKEGVFEDLVHQRAIEFFVEGERFYDLRRWGLLEQTLKTCDDTRYKNYQTGKSDNINKFNYFPIPAKELDTNPLCTPSEGW” the “soluble on expression in E. coli” value was “not soluble”.
In the case of “MGSDKIHHHHHHTEDTVIKVSVLRGPSVIAFADWLENPPIIDNKKVQVKVVDSPDLAQALLIKQETDIAVLPMINAANLYNKGIKIKLAGCPIWGTLYLVEKTPLKEPALYVFGNGTTPDILTRYYLGRQRLDYPLNYAFNTAGEITQGILAGKVNRAVLGEPFLSIALRKDSSLRITADLNHLTDNDTLGFAQTAVVYTPTMEKYRIAFEDALRASCQKAVRYPKETIHSLEEHGIFAQGALTPKSIERCKIYYLSAIEAKDAVMGFLRLIEQYEPKAVGGRLPDAGFIPEKQ”, the “soluble on expression in E. coli” value is reported as “not soluble”.
In the case of “MGSDKIHHHHHHVAKAAQRKLLLSELQLGMRVKLPLSWTNHPFLFNRVDINSLAQIEMIRGLGVPYVFLLSEVNTKSEQPSTDNKIIEVQEQPKTERDIKSATRKAMRLSQKRFLEGVNQCRNMFGKIVSDPEGAYRQSATLVEEMLSHLQEVEQPFLTLVGMDENEVSVTQHGVSVAVIAMMIGHALDLTPRELRDIALGSLLHDIGKLKVPENIRRKLSALTTNEANYLQMHPNFGYDMLNRSGLFPKEVLNIVLHHHEFIDGSGFPDGLTGNKIPIVTQIVALANDFDQHLSGQQASSPQVALGYLFKNRAAKHAESLISVLVKILGIYPPGTIVKLSDDSVAKVIMTTKEVAQPQVWACKPDGSEASLRFLSEEGVTVQKALKAEELTEGAIRTLQVDKGVSFYFSALQA”, the “soluble on expression in E. coli” value is reported as “not soluble”.
For “MGSDKIHHHHHHVFAGFDYGSANCAMAVCEGDSVRLLPIGDSGGQYLMSVVYALDVSFITEAVCQRLPDNQARALVQKRGAELARARRMRQELDLTATDDTVFIGEAALKAYLDTPEEGFFVRSPKSFLGATGLRPEQVALFEDIVTLMMLEVKGRADALLQNPVTHAVIGRPVNFQGIGGEEANIQAQSILQIAAMRAGFTQVSFLFEPLAAAFDFESSLEADKRVLVVDVGGGTTDCSLVTMGPNKRSQTERSEDCLGHSGQRIGGNDLDIALAMECLMPHYGLGDMLSTGKPMPRQMFWQAVAINDVGAQRDFFSLSYATAIKELRKDAINPDALDRLARLRRDQQHCQLVKLAELAKIDLSGEELTQVEHPDGAHTSVAADAFGLAIAPLVQRIGELMRAAVGDESSPDLIYVTGGSSRCPQVASSIAAVYPGVEVVQGDSFGSVTAGLARRAALEFA”, the “soluble on expression in E. coli” value was “not soluble”.
In the case of “MGSDKIHHHHHHVHACGAETAPRCVTSYPFAQMPTAQTKKEKRPPASIESRIAECYDELSEIDQRLADVILSAPGQLAMQTATELASSAQVSKATATRFFQKLGYASYDDARAIARAAQVGGSPLYLQDRGRKTAGSKLDDVIQRHLQHEVENMANTYRSLDTQVLSEVVDAIAQARRVAIIGYRHSYTVATMIRRELIQVRSDVMLLPAPGDTIGEYLADLNAKDLAIVIGLRRRVPAVGLATAALAEAGVPVVYMSDVIAGKPARLARWVIRCHTDGLMLFDSKAGMTAVVNLICSLVAERVLDRSNSHLQRVEVLHDSLRELE”, the “soluble on expression in E. coli” value is reported as “not soluble”.
In the case of “MGSDKIHHHHHHVLDKIELFILDMDGTFYLDDSLLPGSLEFLETLKEKNKRFVFFTNNSSLGAQDYVRKLRNMGVDVPDDAVVTSGEITAEHMLKRFGRCRIFLLGTPQLKKVFEAYGHVIDEENPDFVVLGFDKTLTYERLKKACILLRKGKFYIATHPDINCPSKEGPVPDAGSIMAAIEASTGRKPDLIAGKPNPLVVDVISEKFGVPKERMAMVGDRLYTDVKLGKNAGIVSILVLTGETTPEDLERAETKPDFVFKNLGELAKAVQ”, the “soluble on expression in E. coli” value is reported as “soluble”.
With “MGSDKIHHHHHHVLNVNELVKTELHCHLDGSLSLGVIRQLAQMAKITIPAEDEALRKLVSVHGKVDSLMAYLKLFDFVRPLLQTATALELAAYDLVRQAASDKVIYIEVRFAPELSTDQDLTILEAVSAVLVGLNRGQEDFGVLAKLLVCGLKQTNTNQTKELFSAIADLAPKGLVGFDFAGNEADYPTEELRDIIQFTQSLGYPMTFHAGECGCVINVIQALELGIRRIGHGTALTRNPEAIQAFVNSGATLEMCLTSNLQTGAADSIEYFPYRELVEAGANITINTDNRTVSNTTLNREYQLFVEYFGTSKADFYRFNQNAIQASFASEGEKKVLLELLDQQY” the “soluble on expression in E. coli” value was “not soluble”.
For “MGSDKIHHHHHHVLTNQTGYEYHKCTDLTAMIKDYIDNWQKNNAHFDGIYSGFMTGSKQIELFMDFLDVFYEKNTMLLVDPVMGDDGRTYGIYSAALLDGMKALSRKADVITPNLTEACLLADYDIEKVYSDTRKDVLLPIAAEISEKLRCLSGKNQDVIITGIKCRDDKSPFIYNLVTTANGTTTHRSHFFDVSFSGTGDLFASVICGSRLNGFSTEEAAERAGKFLYDSIADTMNDDTAPNDGVNFEKFLRELM”, the “soluble on expression in E. coli” value was “not soluble”.
With “MGSDKIHHHHHHVNDGSNDFELLGSPWICENPHANWTAPAAHGMFKRFKKKEIIIHSGDQIDYIYYLHKGRIKTVAQSPSGSQKILWYIEAGSIFGETPFFNRKPCDYNFFAVTDCEIYIYPMEVIMQEIIPKFPDLTLSIIKTLSRKVHILSTQVEDCVFNKPLVRVAKLIYLLHQGRILEDKRGSSSIPLTQEDIANTLGMHRVTVNQALKHLKEIQALKEHTHLIIIHDPEKLKEVMEA” the “soluble on expression in E. coli” value was “not soluble”.

— the DeepSol protein solubility set
